{"source": "patent US20120165265A1", "about": "“Calcium Signaling Modulators Involving STIM and ORAI Proteins” (priority 2009, published 2012)", "assay_type_in_all_cases": "cell-based", "key": {"Orai1": {"target": "Orai1 (Homo sapiens, UniProt Q96D31)", "sequence (Q96D31 whole entry)": "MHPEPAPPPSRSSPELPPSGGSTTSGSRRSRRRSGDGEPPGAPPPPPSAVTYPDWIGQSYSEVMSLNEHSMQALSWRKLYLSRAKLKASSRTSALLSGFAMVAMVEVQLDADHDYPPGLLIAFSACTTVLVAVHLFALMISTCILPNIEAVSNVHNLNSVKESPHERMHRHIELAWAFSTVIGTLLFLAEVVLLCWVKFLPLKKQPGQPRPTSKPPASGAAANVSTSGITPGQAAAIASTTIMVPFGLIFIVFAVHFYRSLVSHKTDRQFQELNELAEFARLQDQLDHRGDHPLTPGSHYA", "assay": "Whole-cell patch clamp recording of ICRAC in transfected HEK 293 cells", "set-up": "expressed in transfected cells; host or cells: HEK 293", "details": "compared with native ICRAC", "method": "Electrophysiology. HEK 293 cells were transfected 8-24 h prior to electrophysiology experiments with STIM1- and Orai1-derived constructs in a 1:1 mass ratio using Lipofectamine 2000. […] ICRAC in cells cultured without LaCl3 was similar to that in cells cultured with LaCl3, but most cells without LaCl3 died soon after break-in.\nCurrents were recorded using standard whole-cell patch clamp techniques (Prakriya and Lewis, 2001). Pipettes of resistance 2-5 MΩ were filled with an internal solution containing (in mM) 150 Cs aspartate, 8 MgCl2, 10 EGTA, and 10 HEPES (pH 7.2 with CsOH). Currents were sampled at 5 kHz and filtered at 2 kHz, and all voltages were corrected for the junction potential of the pipette solution relative to Ringer's in the bath (−13 mV).\nPatch-clamp Experiments. Pipette-membrane seals were formed in 2 mM Ca^2+ Ringer's solution. After break-in to the whole-cell configuration, voltage stimuli consisting of a 100-ms step to −100 mV followed by a 100-ms ramp from −100 to +100 mV were delivered every 5 s from the holding potential of +30 mV. After the currents reached a steady level (˜300 s for wild-type STIM1), the external solution was changed via a multibarrel local perfusion pipette to a high-Ca^2+ Ringer's containing (in mM) 130 NaCl, 4.5 KCl, 20 CaCl2, 1 MgCl2, 10 D-glucose, and 5 HEPES (pH 7.4 with NaOH). All data were leak-corrected using the current elicited in 20 mM Ca^2+ Ringer's+10 μM LaCl3 at the end of the each experiment. LaCl3 and 2-APB were added directly to parent solutions on the day of the experiment from 10 mM and 100 mM stocks in H2O and DMSO, respectively.\nAs a definitive test for CRAC channel activation, we conducted whole-cell patch clamp recordings from HEK 293 cells transiently transfected with myc-Orai1 and either YFP-STIM1 or YFP-CAD. In cells expressing full length YFP-STIM1, ICRAC appeared over several minutes following break-in, consistent with the typical slow activation seen in response to passive store depletion (FIG. 2D). […] In contrast, inward current was present from the moment of break-in in cells expressing YFP-CAD (FIG. 2E). This current was identified as ICRAC based on its dependence on extracellular Ca^2+, inward rectification, sequential enhancement and inhibition by 2-APB, and inhibition by La^3+ (FIG. 2E and FIG. 10 C, D). ICRAC was not observed at break-in in HEK 293 cells transfected with YFP or YFP-CAD in the absence of Orai1 (FIG. 2F), consistent with the low level of endogenous STIM1 and Orai1 in these cells. […] Inactivation was restored by addition of STIM1 residues carboxy-terminal to CAD."}, "GFP-Orai1": {"target": "T1, GFP-Orai1 (Homo sapiens, UniProt Q96D31)", "T1 construct": "expressed in transfected cells", "T1 sequence (Q96D31 whole entry)": "as above", "assay": "Fluorescence recovery after photobleaching (FRAP) of GFP-Orai1", "method": "Fluorescence Recovery After Photobleaching (FRAP). Inducible HEK 293 cells were transiently transfected with mCh-CAD and maintained with 10 μM LaCl3 to suppress chronic Ca2+ entry. After 15-16 h, eGFP-myc-Orai1 expression was induced with 1 μg/ml tetracycline in medium containing LaCl3. Cells were rinsed with 2 mM Ca2+ Ringer's solution at 24 h post-transfection prior to imaging on the confocal system described above. Prebleach and recovery images were scanned at 488 nm at low power (20 mW Ar laser, 50% power, 6% transmission). A 3-μm strip was bleached at 50% laser power with full transmission for ˜2 s. Bleaching during the recovery period was negligible (<5%). FRAP recovery curves were analyzed with ImageJ (W. S. Rasband, NIH, Bethesda, Md., following a published method in which an empirical formula approximating the one-dimensional solution of the diffusion equation is fitted to the time course of fluorescence recovery within the bleached ROI. An offset was introduced to account for incomplete bleaching. The\nwhere I(t) is the mean intensity within the bleached region at time t, Ib is the intensity immediately after bleaching, If is the intensity after full recovery, w is the width of the bleached region, and D is the effective diffusion coefficient, was fit to the FRAP recovery curves with Igor Pro 5.0 (Wavemetrics) to determine D. Mobility was determined as (If−Ib)/(I0−Ib), where If and Ib are defined as above, and I0 is the initial intensity within the ROI after correction for the loss of whole-cell fluorescence by the bleaching pulse (˜10%).\nTo test whether CAD also clusters CRAC channels in intact cells, we conducted fluorescence recovery after photobleaching (FRAP) experiments of GFP-Orai1 expressed alone or with CAD in HEK 293 cells. […] In cells co-expressing GFP-Orai1 and CAD, the mobile fraction was unchanged (87±4%) but Orai1 diffusion was slowed by a factor of two (D=0.036±0.006 μm^2/s, n=6)."}, "endogenous CRAC channels": {"system": "endogenous CRAC channels", "assay": "NFAT-luciferase assay in HEK 293T (NFAT-Luc) cells", "details": "HEK 293T NFAT-luc cells transfected with STIM1 construct; PMA (1 μM) alone; listed as D5", "method": "NFAT-luciferase Assays. HEK 293T cells were co-transfected with the indicated constructs and an NFAT reporter gene (firefly luciferase gene C-terminal to 4×-NFAT site from the IL-2 gene). Cotransfection with the Renilla luciferase (pRLTK) gene driven by the TK promoter was used to control for cell number and transfection efficiency. After 12-18 h, cells were treated with a control DMSO solution (mock), PMA (1 μM), or PMA plus TG (1 μM) for 8 h. Assays were performed using the Dual Luciferase Reporter assay system (Promega). For each condition, luciferase activity was measured with 4 samples taken from duplicate wells using a 96-well automated luminometer (Turner Biosystems). Results are represented as the ratio of firefly to Renilla luciferase activity.\nIdentifying a Minimal Cytosolic Region of STIM1 that Opens the CRAC Channel. To identify the CRAC-activating domain of STIM1, we first tested a series of soluble cytosolic STIM1 fragments for their ability to activate an NFAT-dependent luciferase reporter gene (NFAT-luc). A series of constructs were generated by progressive truncation of the full-length cytosolic region of STIM1 (FIG. 2A; STIM1234-685; CT-STIM1) and were transiently expressed in a HEK 293T cell line containing NFAT-luc. […]"}}, "note": "Entries after “also recorded” stand apart in the source; their conditions may differ.", "data": [{"substance": "CAD: 107-residue CRAC activation domain within the C-terminus of STIM1 (aa 342-448), SEQ ID NO:1", "values": [{"measurement": "fast Ca2+-dependent inactivation of activated current", "setting": "Orai1", "result": "lacked fast Ca^2+-dependent inactivation"}, {"measurement": "mobile fraction of GFP-Orai1", "setting": "GFP-Orai1; HEK 293 cells co-expressing GFP-Orai1 and CAD", "result": "87±4", "unit": "%"}, {"measurement": "effective diffusion coefficient (D) of GFP-Orai1, mean", "setting": "GFP-Orai1; HEK 293 cells co-expressing GFP-Orai1 and CAD, n=6", "result": "0.036±0.006", "unit": "μm^2/s"}, {"measurement": "diffusion coefficient of eGFP-Orai1, single-cell fit", "setting": "GFP-Orai1; single cell expressing eGFP-Orai1 with CAD (FIG. 6D)", "result": 0.026, "unit": "μm^2/s"}, {"measurement": "activation of NFAT-dependent luciferase reporter gene (NFAT-luc)", "setting": "endogenous CRAC channels", "result": "active; also recorded: necessary and sufficient to activate NFAT"}]}]}
